Experimental data published in US10766960 (dated 2020).
Residue numbers refer to the chain shown, from its start.

T1: FcgRIIa R (human, UniProt P12318)
T1 chain: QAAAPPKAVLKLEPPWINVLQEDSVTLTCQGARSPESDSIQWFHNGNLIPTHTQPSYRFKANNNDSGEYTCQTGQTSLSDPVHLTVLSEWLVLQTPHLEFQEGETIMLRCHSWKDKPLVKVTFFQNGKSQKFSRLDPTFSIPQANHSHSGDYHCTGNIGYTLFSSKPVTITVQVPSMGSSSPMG

T2: FcgRIIa H (human, UniProt P12318)
T2 chain: T1 chain with R134H

T3: FcgRIIb (human, UniProt P31994)
T3 chain: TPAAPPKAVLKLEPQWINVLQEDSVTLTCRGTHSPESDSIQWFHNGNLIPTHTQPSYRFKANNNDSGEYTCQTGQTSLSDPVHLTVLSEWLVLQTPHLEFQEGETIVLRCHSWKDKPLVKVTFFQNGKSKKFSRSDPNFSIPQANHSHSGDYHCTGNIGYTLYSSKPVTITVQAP

T4: FcgRIa (human, UniProt P12314)
T4 chain: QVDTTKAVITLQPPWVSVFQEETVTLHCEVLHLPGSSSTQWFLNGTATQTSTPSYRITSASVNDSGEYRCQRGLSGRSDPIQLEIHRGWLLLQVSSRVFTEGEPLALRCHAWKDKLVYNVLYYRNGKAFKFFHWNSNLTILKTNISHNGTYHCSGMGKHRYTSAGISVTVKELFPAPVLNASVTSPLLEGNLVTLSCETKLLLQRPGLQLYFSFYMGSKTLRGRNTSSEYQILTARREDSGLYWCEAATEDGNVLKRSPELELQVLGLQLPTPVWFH

B1: H240-FA021/H240-FB084/L73-k0 (antibody)
chain 1: QDQLVQSGAEVKKPGASVKVSCKASGFNIKDTYIQWVRQAPGQGLEWMGRIDPLRKQTKYREKFEGRVTITADTSTNTAYMELSSLRSEDTAVYYCVRSGREFDYWGQGTLVTVSSASTKGPSVFPLAPSSKSTSGGTAALGCLVKDYFPEPVTVSWNSGALTSGVHTFPAVLQSSGLYSLSSVVTVPSSSLGTKTYTCNVNHKPSNTKVDKKVEPKSCDKTHTCPPCPAPEYYWGPSVFLFPPKPKDTLMISRTPEVTCVVVDVSDEEPEVKFNWYVDGVEVHNAKTKPREEQYNATYRVVSVLTVLHQDWLNGKEYKCKVSNKALPAPIEKTISKAKGQPREPQVYTLPPSRKEKTKNQVSLTCLVKGFYPSDIAVEWESNGQPENNYKTTPPKLDSDGSFFLYSKLTVDKSRWQQGNVFSCSVMHEALHNRYTQKSLSLSP
chain 2: QDQLVQSGAEVKKPGASVKVSCKASGFNIKDTYIQWVRQAPGQGLEWMGRIDPLRKQTKYREKFEGRVTITADTSTNTAYMELSSLRSEDTAVYYCVRSGREFDYWGQGTLVTVSSASTKGPSVFPLAPSSKSTSESTAALGCLVEDYFPEPVTVSWNSGALTSGVHTFPAVLQSSGLYSLSSVVTVPSSNFGTQTYTCNVDHKPSNTKVDKTVEPKSCDKTHTCPPCPAPELLGGPSVFLFPPKPKDTLMISRTPEVTCVVVDVSHEEPEVQFNWYVDGVEVHNAETKPREEQYNSTYRVVSVLTVLHQDWLNGKEYKCKVSNDALPMPIEETISKAKGQPREPQVYTLPPSREEMTKNQVSLTCLVKGFYPSDIAVEWESEGQPENNYKTTPPVLDSDGSFFLYSKLTVDKSRWQQGNVFSCSVMHEALHNHYTQESLSLSP
chain 3: DIQMTQSPSSLSASVGDRVTITCRASQDIHKYIAWYQQKPGQAPRLLIQYTSTLQPGVPSRFSGSGSGTDYTFTISSLQPEDIATYYCLQYEQLRTFGGGTKVEIKRTVAAPSVFIFPPSDEQLKSGTASVVCLLNNFYPREAKVQWKVDNALQSGNSQESVTEQDSKDSTYSLSSTLTLSKADYEKHKVYACEVTHQGLSSPVTKSFNRGEC
B2: H240-FA009/H240-FB001/L73-k0 (antibody)
chain 1: B1 chain 1 with T198I, K357M, K396V
chain 2: B1 chain 2 with E136G, S137G, E146K, N191S, F192L, T198I, D202N, T213K, E287K, E383N
chain 3: B1 chain 3
B3: H240-FA024/H240-FB064/L73-k0 (antibody)
chain 1: B1 chain 1 with E271K, K396V
chain 2: B1 chain 2 with E146K, E287K, E383N
chain 3: B1 chain 3
B4: H240-FA030/H240-FB082/L73-k0 (antibody)
chain 1: B1 chain 1 with E271K, K357M, K396V
chain 2: B1 chain 2 with E136G, S137E, N191S, F192L, T198I, D202N, T213K
chain 3: B1 chain 3
B5: H240-FA030/H240-FB084/L73-k0 (antibody)
chain 1: B1 chain 1 with E271K, K357M, K396V
chain 2: B1 chain 2
chain 3: B1 chain 3
B6: H240-FA009/H240-FB016/L73-k0 (antibody)
chain 1: B1 chain 1 with T198I, K357M, K396V
chain 2: B1 chain 2 with E136G, S137G, E146K, N191S, F192L, T198I, T213K, E287K, E383N
chain 3: B1 chain 3
B7: H240-FA021/H240-FB059/L73-k0 (antibody)
chain 1: B1 chain 1
chain 2: B1 chain 2 with E136G, S137E, N191S, F192L, T198I, D202N, T213K, E383N
chain 3: B1 chain 3

Target: T1, FcgRIIa R
Assay: SPR

Row | Binder | Kd [nM]
1 | B1 | 230
2 | B2 | 250
3 | B3 | 330
4 | B4 | 300
5 | B5 | 270
6 | B6 | 250
7 | B7 | 280

These binders were tested against FcgRIIIa V (human, UniProt P08637) (assay: SPR).
Sequence of FcgRIIIa V (P08637 17-208 F176V): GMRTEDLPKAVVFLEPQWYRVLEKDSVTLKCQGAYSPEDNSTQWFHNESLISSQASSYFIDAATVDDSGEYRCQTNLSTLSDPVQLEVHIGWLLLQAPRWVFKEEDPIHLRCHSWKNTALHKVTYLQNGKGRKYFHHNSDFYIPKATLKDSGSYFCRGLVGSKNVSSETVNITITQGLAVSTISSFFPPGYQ

Row | Binder | Kd [nM]
8 | B1 | 1.3
9 | B2 | 1.1
10 | B3 | 1.3
11 | B4 | 1.3
12 | B5 | 1.3
13 | B6 | 1
14 | B7 | 1.7

Target: T2, FcgRIIa H
Assay: SPR

Row | Binder | Kd [nM]
15 | B1 | 69
16 | B2 | 69
17 | B3 | 110
18 | B4 | 88
19 | B5 | 88
20 | B6 | 70
21 | B7 | 92

Target: T3, FcgRIIb
Assay: SPR

Row | Binder | Kd [nM]
22 | B1 | 1300
23 | B2 | 1300
24 | B3 | 1900
25 | B4 | 1900
26 | B5 | 2500
27 | B6 | 1400
28 | B7 | 1300

Target: T4, FcgRIa
Assay: SPR

Row | Binder | Kd [nM]
29 | B1 | 0.033
30 | B2 | 0.17
31 | B3 | 0.095
32 | B4 | 0.092
33 | B5 | 0.12
34 | B6 | 0.13
35 | B7 | 0.069

The binders below were run against FcgRIIIa F (human, UniProt P08637) (assay: SPR).
Sequence of FcgRIIIa F (P08637 17-208): as the sequence (P08637 17-208 F176V) above, with V160F counted along it

Row | Binder | Kd [nM]
36 | B1 | 3.3
37 | B2 | 4.3
38 | B3 | 4.7
39 | B4 | 4.3
40 | B5 | 4.2
41 | B6 | 4.4
42 | B7 | 4.4
